Molecular target: T1, PPE68 (Mycobacterium tuberculosis, UniProt P9WHW9 1-368)
T1 construct: also called recombinant PPE68
T1 sequence: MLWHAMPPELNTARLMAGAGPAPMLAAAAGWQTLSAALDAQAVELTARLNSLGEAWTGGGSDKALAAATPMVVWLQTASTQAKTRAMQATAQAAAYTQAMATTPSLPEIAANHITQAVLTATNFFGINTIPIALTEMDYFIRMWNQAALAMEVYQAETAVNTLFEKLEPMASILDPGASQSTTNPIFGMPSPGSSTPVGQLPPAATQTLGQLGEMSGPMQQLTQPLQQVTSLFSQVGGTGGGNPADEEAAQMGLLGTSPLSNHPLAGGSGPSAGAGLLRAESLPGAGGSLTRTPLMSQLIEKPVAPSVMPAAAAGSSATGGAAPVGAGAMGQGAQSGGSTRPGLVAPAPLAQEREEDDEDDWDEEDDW
Assay: other fluorescence titration; intrinsic fluorescence of the PPE protein (10 μg) with the tryptophan-free PE protein added (10 and 30 μg); excitation 280 nm, emission 300-340 nm, 25 ± 0.1 °C
Conditions: both partners purified

B1: PE35 (natural protein)
chain: MEKMSHDPIAADIGTQVSDNALHGVTAGSTALTSVTGLVPAGADEVSAQAATAFTSEGIQLLASNASAQDQLHRAGEAVQDVARTYSQIDDGAAGVFAE
notes: also called recombinant PE35
**Q.** Does B1 bind?
**A.** binds

Reference: article PMC6943233, “Disorder‐to‐order transition in PE–PPE proteins of Mycobacterium tuberculosis augments the pro‐pathogen immune response” (FEBS Open Bio, 2019)
